Source: the nanobody polyreactivity screen of Harvey et al. (2022)

Assay: yeast display, Sf9 membrane polyspecificity reagent, FACS + sequencing; frameworks hold sequencing errors
Outline: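 Genes from sorted yeast were amplified by colony PCR, read by MiSeq 2 × 250 sequencing and filtered on CDR length. These cells carried a synthetic nanobody library in Saccharomyces cerevisiae BJ5465 and were sorted by FACS into low and high (top ~1%) gates on anti-HA and streptavidin fluorescence. Polyreactivity is labelled according to the gate of origin.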
With “QVQLVESGGGLVQAGGSLRLSCAASGSIFGAYAMGWYRQAPGKERELVAVISRSGGRTYYADSVKGRFTISRDNAKNTVYLQMNSLKPVDTAVYYCAADTRYVQYDYWGQGTQVTVSS” the “polyreactivity (PSR sort gate)” value was “high polyreactivity”.
For “QVQLVESGGGLVQAGGSLRLSCAASGSIFGDNAMGWYRKAPGKERELVAGISSSGGRTYYADSVKGRFTISRDNAKNTVYLQMNSLKPEVTAVYYCAKEPGWGRRSTTAYDYCGQGTQVTVSS”, the “polyreactivity (PSR sort gate)” value was “low polyreactivity”.
For “QVQLVESGGGLVQAGGSLRLSCAASGSIFGDNAMGWYRQAPGKERELVARISSGGNTYYADSVKGRFSISRDNAMNTVYLQMNSLKPEDTAVYYCAAAIIVRYKKFPYYYWGQGTQVTVSS”, the “polyreactivity (PSR sort gate)” value was “high polyreactivity”.
With “QVQLVESGGGLVQAGGSLRLSCAASGSIFGDYAMGWYRQAPGKEREFVAGITRRGGRTYYADSVKGRFTISRDNAKNTVYLQMNSLKPEETAVYYCNAVYSSSLRSKYDYWGQGTQVTVSS” the “polyreactivity (PSR sort gate)” value was “high polyreactivity”.
In the case of “QVQLVESGGGLVQAGGSLRLSCAASGSIFGDYAMGWYRQAPGKERELVAAITSSGGITYYADSVKGRFTISRDNAKNTVYLQMNSLKPEDTAVYYCAAYGYGSNYRYTGYYYWGQGTQVTVSS”, the “polyreactivity (PSR sort gate)” value is reported as “low polyreactivity”.
With “QVQLVESGGGLVQAGGSLRLSCAASGSIFGDYAMGWYRQAPGKERELVADISSGGSTTYADSVKGRFTISRDNAKNTVYLQMNSLKPEDTAVYYCNAERGVPYGYWGQGTQVTVSS” the “polyreactivity (PSR sort gate)” value was “low polyreactivity”.
In the case of “QVQLVESGGGLVQAGGSLRLSCAASGSIFGDYVLGWYRQAPGKERELVASISESTDSTYYADSVKGRFTISRDNAKNTVYLQMNSLKPEDTAVYYCATAYPEWAVWGYDYWGQGTQVTVSS”, the “polyreactivity (PSR sort gate)” value is reported as “low polyreactivity”.
With “QVQLVESGGGLVQAGGSLRLSCAASGSIFGDYVMGWNRQAPGKERELVAAINRGGSTYYADSVKGRFTISRDNAKNTVYLQMNSLKPEDTAVYYCAAGYPSWYYGYPYDSWGQGSQVTVSS” the “polyreactivity (PSR sort gate)” value was “low polyreactivity”.
For “QVQLVESGGGLVQAGGSLRLSCAASGSIFGENAMGWYRQAPGKERELVAAITWSGASTYYADSVKGRFTISRDNAKNTVYLQMNSLKPEETAVYYCNADRYVRYSTFDYWGQGTQVTVSS”, the “polyreactivity (PSR sort gate)” value was “high polyreactivity”.
With “QVQLVESGGGLVQAGGSLRLSCAASGSIFGEYAMGWYRQAPGKERELVAAINVNGGRTYYADSVKGRFTISRDNAKNTVYLQMNSLKPEDTAVYYCNARSYASYRQGNTYGSWGQGTQVTVSS” the “polyreactivity (PSR sort gate)” value was “high polyreactivity”.
With “QVQLVESGGGLVQAGGSLRLSCAASGSIFGEYTMGWYRQAPGKERELVAAISWNGGITYYADSVKGRFTISRDNAKNTVYLQMNSLKPEDTAVYYCAAETYPWSLFTYYSWGQGSQVTVSS” the “polyreactivity (PSR sort gate)” value was “low polyreactivity”.
For “QVQLVESGGGLVQAGGSLRLSCAASGSIFGFKVMGWYRQEPGKERELVAAITYSGGSTYYADSVKGRFTISRANAKNTVYIQMNSLKPEDTAVYYCAADTFTPYWWYSSLDEYWGQGTQVTVSS”, the “polyreactivity (PSR sort gate)” value was “high polyreactivity”.
For “QVQLVESGGGLVQAGGSLRLSCAASGSIFGFNAMGWYRPAPGKERELVAGITSGDRTNYADSVKGRFTISRDNAKNTVYLQMNSLKPEDTAVYYCAARKYVFFKMYYWGQGTQVTVSS”, the “polyreactivity (PSR sort gate)” value was “low polyreactivity”.
For “QVQLVESGGGLVQAGGSLRLSCAASGSIFGFNAMGWYRQAPGKERELVAAINNGGSTNYADSVKGRFTISRDNAKNTVYLQMNSLKPEDTAVYYCSARLNYIRRGYWGQGTQVTVSS”, the “polyreactivity (PSR sort gate)” value was “high polyreactivity”.
For “QVQLVESGGGLVQAGGSLRLSCAASGSIFGFYAMGLYIQEPGKERELVAAITSGDSTHYADSVKGRFTISRDNAKNTVYLQMNSLKPEDTAVYYCATEYLYVDFFIRYDYWGQGTQVTVSS”, the “polyreactivity (PSR sort gate)” value was “low polyreactivity”.
With “QVQLVESGGGLVQAGGSLRLSCAASGSIFGFYAMGWYRQAPGKERELVASISSSGDSTYYADSVKGRFTISRDNAKNTVYLQINSLKPEDTAVYYCAAVVYDIYGYEFDYWGQGTQVTVSS” the “polyreactivity (PSR sort gate)” value was “low polyreactivity”.
In the case of “QVQLVESGGGLVQAGGSLRLSCAASGSIFGGNAMGWYRQAPGKERELVAVISWSGGSTYYADSVKGRFTISRDNAKNTVYVQMNSLKPEDTAVYYCATSSVAEAKYVTEGTFDYWGQGTQVTVSS”, the “polyreactivity (PSR sort gate)” value is reported as “low polyreactivity”.
In the case of “QVQLVESGGGLVQAGGSLRLSCAASGSIFGGYAMGWYRPAPGKERELVAAIDESGGSTYYADSVKGRFTISRDNAKNTVYLQMNSLKPEDTAVYYCLVFRDDSGPGDYYYWGQGTQVTVSS”, the “polyreactivity (PSR sort gate)” value is reported as “low polyreactivity”.
For “QVQLVESGGGLVQAGGSLRLSCAASGSIFGGYAMGWYRQAPGKERELVAAISKTGGTTYYADSVKGRFTISRDNAKNTVYLQMNSLKPEDTAVYYCNAPKRYSGSAYGYGYWGQGTQVTVSS”, the “polyreactivity (PSR sort gate)” value was “high polyreactivity”.
With “QVQLVESGGGLVQAGGSLRLSCAASGSIFGGYAMGWYRQAPGKERELVAAISRTGGRTYYADSVKGRFTISRDNAKNTVYLQMNSLKPEDTAVYYCAARVVHQSRYSYEYWGQGTQVTVSS” the “polyreactivity (PSR sort gate)” value was “high polyreactivity”.
For “QVQLVESGGGLVQAGGSLRLSCAASGSIFGGYAMGWYRQAPGKERELVAAISSGGSTYYADSVKGRFTISRDNAKNTVYLQMNSLKPEDTAVYYCATSTFAYRRNSYYYTRPRFGYWGQGTQVTVSS”, the “polyreactivity (PSR sort gate)” value was “high polyreactivity”.
For “QVQLVESGGGLVQAGGSLRLSCAASGSIFGGYAMGWYRQAPGKERELVAAITSGGGSTYYADSVKGRFTISRDNAKNTVYLQMNSLKPEDTAVYYCAALQSHGVDYDYWGQGTQVTVSS”, the “polyreactivity (PSR sort gate)” value was “low polyreactivity”.
In the case of “QVQLVESGGGLVQAGGSLRLSCAASGSIFGGYAMGWYRQAPGKERELVASITASGGSTYYADSVKGRFTISRDNAKNTVYLQMNSLKPEDTAVYYCAAEVFSGYDYDYWGQGTQVTVSS”, the “polyreactivity (PSR sort gate)” value is reported as “low polyreactivity”.
For “QVQLVESGGGLVQAGGSLRLSCAASGSIFGGYGMGWYRQAPGKERELVAAITSGSSTYYADSVTGRFTISRDNAKNTVYLQMNSLKPEDTAVYYCAARPYPHSAYEGDYWGRGTQVTVSS”, the “polyreactivity (PSR sort gate)” value was “low polyreactivity”.
In the case of “QVQLVESGGGLVQAGGSLRLSCAASGSIFGGYGMGWYRQAPGKERELVAVITKRGGSTYYADSVKGRFTISRDNAKNTVYLQMNSLKPEDTAVYYCNKVGYYASVLGYDYWGQGTQVTVSS”, the “polyreactivity (PSR sort gate)” value is reported as “high polyreactivity”.
In the case of “QVQLVESGGGLVQAGGSLRLSCAASGSIFGGYTMGWYRQAPGKERELVAAISARGGNTYYADSVKGRFTISRDNAKNTVYLQMNSLKPEDTAVYYCAKVRYTQSYRGYGYWGQGTQVTVSS”, the “polyreactivity (PSR sort gate)” value is reported as “high polyreactivity”.
With “QVQLVESGGGLVQAGGSLRLSCAASGSIFGHNTMGWYRQPPGKERELVAAITWNGGRTYYADSVKGRFTISRDNAKNTVYLQMNSLKPEDTAVYYCNAVVKTYGYKAHRYPSSRLNYWGQGTQVTVSS” the “polyreactivity (PSR sort gate)” value was “high polyreactivity”.
For “QVQLVESGGGLVQAGGSLRLSCAASGSIFGHYAMGWYRQAPGKERELVAAISWSGTSTYYADSVKGRFTISRDNAKNTVYLQMNSLKPEDTAVYYCAAEASYNYGKYVVTYDYWGQGTQVTVSS”, the “polyreactivity (PSR sort gate)” value was “high polyreactivity”.
In the case of “QVQLVESGGGLVQAGGSLRLSCAASGSIFGIYAMGWYRQAPGKERELVATITYSGGTTYADSVKGRFTISRDNAKNTVYLQMNSLNPEDTAVYYCAAGGDYAYDCWGQGTQVTVSS”, the “polyreactivity (PSR sort gate)” value is reported as “low polyreactivity”.
For “QVQLVESGGGLVQAGGSLRLSCAASGSIFGKNAMGWYRQAPGKEREFVAAITNTGGDTYYADSVKGRFTISRDNAKNNVYLQMNSLKPEDTAVYYCNARKRKTSLYKFNYWGQGTQVTVSS”, the “polyreactivity (PSR sort gate)” value was “high polyreactivity”.
With “QVQLVESGGGLVQAGGSLRLSCAASGSIFGKYAMGWYRQAPGKERELVAAISWSGGSTYYADSVKGRFTISRDNAKNTVYLQMNSLKPEDTAVYYCAATFRGTFRRIWTDTRAYDYWGQGTQVTVSS” the “polyreactivity (PSR sort gate)” value was “high polyreactivity”.
For “QVQLVESGGGLVQAGGSLRLSCAASGSIFGKYAMGWYRQAPGKERELVAAITGRGASTYYADSVKGRFTISRDNAKNTVYLQMNSLKPVDTAVYYCAARASWYYVYPYDYWGQGTQVTVSS”, the “polyreactivity (PSR sort gate)” value was “low polyreactivity”.
With “QVQLVESGGGLVQAGGSLRLSCAASGSIFGLNAMGWYRPAHGKETELVAAISGGSTNYADSVKGRFTISRDNAKNTVYLQMNSLKTDDTAVYYCAARARRRYYYWGQGTQVTVSS” the “polyreactivity (PSR sort gate)” value was “high polyreactivity”.
With “QVQLVESGGGLVQAGGSLRLSCAASGSIFGLNAMGWYRPEPGQESALVAAISYSGGTTYYADSVKGRFTISRDNAKNSVYLQMNSLKPEDTAVYYCATRARYVGGYKYNYWGQGTQVTVSS” the “polyreactivity (PSR sort gate)” value was “high polyreactivity”.
In the case of “QVQLVESGGGLVQAGGSLRLSCAASGSIFGLNAMGWYRQAPGKERELVAAISCGSTNYADSVKGRFTISRDNAKYTVYLQMNSLKPEDTAVYYCAARARRRYYYWGQGTQVTVSS”, the “polyreactivity (PSR sort gate)” value is reported as “high polyreactivity”.
For “QVQLVESGGGLVQAGGSLRLSCAASGSIFGLNAMGWYRQAPGKERELVARISTGSSTNYADSVKGRFTISRDHAKNSVYLQMNSLKPEDTAVYYCNADYPYYPYRENYWGQGTQVTVSS”, the “polyreactivity (PSR sort gate)” value was “low polyreactivity”.
For “QVQLVESGGGLVQAGGSLRLSCAASGSIFGLYAMGWYRQAPGIERALVAAITTTGGSTYYADSVKGRFTISRDNAKNTVYLQMNSLKPEDTAVYYCNADYVAYGPEYDYWGQGTQVTVSS”, the “polyreactivity (PSR sort gate)” value was “low polyreactivity”.
With “QVQLVESGGGLVQAGGSLRLSCAASGSIFGLYAMGWYRQAPGKERELVAAINQSGGSTSYADSVKGRFTISRDNAKNTVYLQMNSLKPEDTAVYYCAAKRSWGATRRAYGRYDYWGQGTQVTVSS” the “polyreactivity (PSR sort gate)” value was “low polyreactivity”.
With “QVQLVESGGGLVQAGGSLRLSCAASGSIFGLYAMGWYRQAPGKERELVAAINQSGGSTSYADSVKGRFTISRDNAKNTVYLQMNSLKPEDTAVYYCNRVRLNTEGFDYWGQGTQVTVSS” the “polyreactivity (PSR sort gate)” value was “low polyreactivity”.
In the case of “QVQLVESGGGLVQAGGSLRLSCAASGSIFGNAMGWYRQAPGKERELVAAISRRGGRTYYADSVKGRFTISRDNAKNTVYLQMNSLKPEDTAVYYCNKYVTPWNEMDYWGQGTQVTVSS”, the “polyreactivity (PSR sort gate)” value is reported as “high polyreactivity”.
In the case of “QVQLVESGGGLVQAGGSLRLSCAASGSIFGPYAMGWYRQAPGKERELVAAITIGGDNTYYADSVKGRFTISRDNAKNTVYLQMNSLKPEDTAVYYCAAKYYCGKPHYYEYYYWGQGTQVTVSS”, the “polyreactivity (PSR sort gate)” value is reported as “low polyreactivity”.
